The text below walks through data of PMC3543869.

This assay addresses T1, recombinant rat apolipoprotein E (rat), P02650.
T1 chain: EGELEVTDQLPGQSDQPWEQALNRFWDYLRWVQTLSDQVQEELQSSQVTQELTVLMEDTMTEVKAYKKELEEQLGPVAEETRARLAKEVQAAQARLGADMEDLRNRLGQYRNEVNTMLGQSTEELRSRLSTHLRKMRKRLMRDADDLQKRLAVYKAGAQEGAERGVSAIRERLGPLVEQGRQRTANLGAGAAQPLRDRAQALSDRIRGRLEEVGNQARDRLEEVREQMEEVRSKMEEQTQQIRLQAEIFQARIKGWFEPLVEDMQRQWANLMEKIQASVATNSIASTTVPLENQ
As to the kind of experiment: SEC. Conditions: remark: other sources report otherwise.

B1: recombinant rat apolipoprotein E, P02650 19-312 (natural protein)
chain: T1 chain
Take B1: the stoichiometry N was 4.
